Assay results reported in patent CN117069840A (BEIJING BIOSYSTEMS BIOLOGICAL TECH CO LTD, dated 2023).

Tests used:
Test in all cases: indirect ELISA, antigen coated at 1 μg/mL, hybridoma supernatant, HRP-anti-mouse IgG
[1] = target: T1, 人源TNF-alpha蛋白 (human, UniProt P01375 77-233)
T1 construct: also called TNF-α

[2] = target: 人源GM-CSF蛋白 (human, UniProt P04141 18-144)
[3] = target: 人源IL-2蛋白 (human, UniProt P60568 21-153)
[4] = target: T2, 人源IL-4蛋白 (human, UniProt P05112 25-153)
T2 sequence (looked up): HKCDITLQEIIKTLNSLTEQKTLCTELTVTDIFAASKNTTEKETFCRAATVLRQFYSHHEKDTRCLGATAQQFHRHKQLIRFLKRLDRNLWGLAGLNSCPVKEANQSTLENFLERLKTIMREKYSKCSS

[5] = target: 人源IL-10蛋白 (human, UniProt P22301 19-178)
[6] = target: 人源IL-15蛋白 (human, UniProt P40933 49-162)
[7] = target: T3, 人源IL-7蛋白 (human, UniProt P13232 26-177)
T3 sequence (looked up): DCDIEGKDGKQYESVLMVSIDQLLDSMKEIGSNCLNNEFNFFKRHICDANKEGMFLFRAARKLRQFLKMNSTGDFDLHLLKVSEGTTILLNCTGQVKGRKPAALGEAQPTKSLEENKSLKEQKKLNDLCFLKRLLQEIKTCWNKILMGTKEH

[8] = target: 人源IL-6蛋白 (human, UniProt P05231 30-212)

Measured: binding result

人源GM-CSF蛋白, sequence (P04141 18-144 limits assumed): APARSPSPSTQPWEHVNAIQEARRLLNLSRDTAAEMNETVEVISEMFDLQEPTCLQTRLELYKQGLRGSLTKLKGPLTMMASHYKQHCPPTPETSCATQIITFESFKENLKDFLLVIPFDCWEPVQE
人源IL-15蛋白, sequence (P40933 49-162 limits assumed): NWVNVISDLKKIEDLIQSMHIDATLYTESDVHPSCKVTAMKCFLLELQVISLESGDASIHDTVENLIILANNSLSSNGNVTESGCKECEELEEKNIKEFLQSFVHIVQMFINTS
人源IL-2蛋白, sequence (P60568 21-153 limits assumed): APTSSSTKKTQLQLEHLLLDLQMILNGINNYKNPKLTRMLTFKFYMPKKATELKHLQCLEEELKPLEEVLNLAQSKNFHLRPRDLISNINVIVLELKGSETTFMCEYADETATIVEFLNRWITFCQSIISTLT
人源IL-10蛋白, sequence (P22301 19-178 limits assumed): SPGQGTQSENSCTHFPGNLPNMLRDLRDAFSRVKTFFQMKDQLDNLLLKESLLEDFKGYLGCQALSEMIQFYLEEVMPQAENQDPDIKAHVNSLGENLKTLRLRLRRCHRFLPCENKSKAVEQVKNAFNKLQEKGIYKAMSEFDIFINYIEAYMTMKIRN
T1 sequence (P01375 77-233 limits assumed): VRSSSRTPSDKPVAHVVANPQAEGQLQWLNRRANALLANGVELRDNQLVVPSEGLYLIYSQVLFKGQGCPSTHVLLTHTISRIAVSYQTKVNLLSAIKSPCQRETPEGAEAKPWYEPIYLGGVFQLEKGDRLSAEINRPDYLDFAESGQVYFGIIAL

B1: 抗体3G6D7 (antibody, V domains shown)
VH: EIQLQQSGPELVKPGASVKVSCKASGYGFTSYNMNWVKQSHGKSLEWIGYIDPYNGGSGYNQKFKGKATLTVDKSSSTAYMHLISLTSDDSAVYYCARGDYDGGYYGMDYWGQGTSVTVSS
VL: DILLTQSPAILSVSPGESVSFSCRASQSVGTSIHWFQQRTNGSPRLLIKYASESISGIPSRFSGSGSGTDFTLIINSVESEDIADYYCQQSNGWPFTFGSGTKLEIK
notes: Mouse monoclonal antibody from a hybridoma; also called Clone 3G6D7; 克隆号3G6D7
no binding: all assays above

B2: 抗体13A6G6 (antibody, V domains shown)
VH: EVKLEESGGGLVQPGGSTKLSCAASGFTFSDAWMNWVRQSPEKGLEWIAEIRTKTSNHAAYYAASVKGRFTISRDDSKSSVYLQMNSLRPEDTGIYYCTRFDYWGQGTTLTVSS
VL: DVQITQSPSYLAASPGETITINCRASKNINKHLAWYHDKPGKTNKLLIYSGSTLQSGTPSRFSGSGSGTDFTLTISSLEPEDFAVYYCQQHNEYPYTFGGGTKLAIK
notes: Mouse monoclonal antibody from a hybridoma; also called Clone 13A6G6; 克隆号13A6G6
no binding: all assays above
